# Entries after “also recorded” stand apart in the source; their conditions may differ. Where a SMILES comes first, the peptide text is derived from it. Where no end group is shown, it is not given here.
# B1: TIP(23-39) (peptide)
# peptide: RHWLNSYMHKLLVLDAP
# B2: TIP(3-39) (peptide)
# peptide: ALADDAAFRERARLLAALERRHWLNSYMHKLLVLDAP
# modifications: not fully specified (C-terminus)
# B3: TIP(19-39) (peptide)
# peptide: ALERRHWLNSYMHKLLVLDAP
# Legend:
# PTH1R [1] = target: T1, PTH1R (Homo sapiens, UniProt Q03431); test: Ligand-stimulated cAMP accumulation in HKrk-B7 cells; assay type: cell-based; set-up: expressed in transfected cells; conditions: HKrk-B7 cells
# T1 sequence (Q03431 27-593): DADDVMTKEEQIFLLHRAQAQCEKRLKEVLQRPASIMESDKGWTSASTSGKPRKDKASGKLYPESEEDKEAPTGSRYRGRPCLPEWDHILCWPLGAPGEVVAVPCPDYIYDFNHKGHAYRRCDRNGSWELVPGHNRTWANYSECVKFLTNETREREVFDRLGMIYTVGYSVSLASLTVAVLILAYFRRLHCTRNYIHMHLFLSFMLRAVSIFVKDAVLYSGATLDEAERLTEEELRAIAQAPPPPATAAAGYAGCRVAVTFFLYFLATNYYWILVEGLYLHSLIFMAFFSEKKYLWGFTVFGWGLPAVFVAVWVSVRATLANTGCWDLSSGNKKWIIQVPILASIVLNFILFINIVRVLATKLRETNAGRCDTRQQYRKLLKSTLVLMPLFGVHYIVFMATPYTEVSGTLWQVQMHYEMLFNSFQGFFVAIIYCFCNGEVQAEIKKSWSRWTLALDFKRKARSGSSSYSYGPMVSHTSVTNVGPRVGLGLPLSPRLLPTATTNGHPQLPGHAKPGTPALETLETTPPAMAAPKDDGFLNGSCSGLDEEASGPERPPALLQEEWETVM
# Protocol: DMEM, Trypsin/EDTA, and penicillin G/streptomycin and horse serum were from Gibco/BRL, Life Technologies, Gaithersburg, Md. LLC-PK, expressing the recombinant human PTH1R (HKrk-B7 cells) and SaOS-2 cells expressing the wild-type PTH1R endogenously were cultured in DMEM supplemented with 10% heat-inactivated fetal bovine serum, 100 U/ml penicillin, 100 μg/ml streptomycin, as previously described (Gardella, T. J., et al., J. Biol. Chem. 271:19888-19893 (1996); Fukayama, S., et al., Endocrinology 134:1851-1858 (1994)); both cell lines were maintained in a humidified atmosphere containing 95% air and 5% CO2. After seeding, medium was replaced daily, until cells were used for radioligand binding or cAMP accumulation assays.
# Na^125I (specific activity: 2,000 Ci/mmol) was purchased from DuPont/NEN, Boston, Mass. Fetal bovine serum, 3-isobutyl-1-methyl-xanthine (IBMX), and BSA were from Sigma, St. Louis, Mo., and trifluoroacetic acid (TFA) was from Pierce, Rockford, Ill. Radiolabeled rPTH(1-34) and PTHrP(1-36) were prepared by the chloramine-T method, followed by HPLC purification using a 30-50% ACN/0.1% TFA gradient over 30 minutes; radioreceptor assays were performed in 24-well plates as previously described (Gardella, T. J., et al., J. Biol. Chem. 271:19888-19893 (1996); Fukayama, S. et al., Endocrinology 134:1851-1858 (1994)). In brief, each well (final volume 500 μl) contained binding buffer (BB; 50 mM Tris-HCl (pH 7.7), 100 mM NaCl, 5 mM KCl, 2 mM CaCl2, 5% heat-inactivated horse serum, and 0.5% heat-inactivated fetal bovine serum), the ^125I-labeled PTH or PTHrP analog (100,000 to 200,000 cpm) was incubated in the absence or presence of increasing concentrations of unlabeled peptides. After 4 h at 16° C., buffer was completely removed, the cells were rinsed with cold BB and lysed with 1 M NaOH. The entire lysate was counted for γ-irradiation. Specific binding was determined after subtracting radioactivity bound in the presence of maximal concentrations of unlabeled competing peptide (10^−6 M). Agonist-dependent stimulation of cAMP accumulation by HKrk-B7 and SaOS-2 cells (48-well plates; stimulation at room temperature for 45 minutes) and the subsequent measurement of cAMP by radioimmunoassay was performed as previously described (Gardella, T. J., et al., J. Biol. Chem. 271:19888-19893 (1996); Bergwitz, C., et al., Endocrinology 139:723-732 (1998)). Data were analyzed and graphically illustrated using the graph-pad prism software package.
# The values for EC50 and Vmax (mean±SE) are derived from at least three independent experiments.
# human PTH2 receptor [2] = target: T2, human PTH2 receptor (Homo sapiens, UniProt P49190); test: Inhibition of agonist-stimulated cAMP accumulation in hPR2-20 LLCPK1 cells; assay type: cell-based
# T2 construct: expressed in transfected cells
# Description: FIG. 8. […] Data are expressed as % of half-maximal cAMP accumulation and represent the results (mean±SE) of at least three independent experiments.
# PTH1R [3] = target: T1, PTH1R; test: Inhibition of agonist-stimulated cAMP accumulation in SaOS-2 cells; assay type: cell-based; set-up: expressed in transfected cells; conditions: SaOS-2 cells (stated for both cell lines); agonists 0.15-0.3 nM
# Description: FIG. 4A-4F. Inhibition of agonist-stimulated cAMP accumulation in HKrk-B7 cells (FIG. 4A-4C) or SaOS-2 cells (FIG. 4D-4F). […] Data are expressed as % of half-maximal cAMP accumulation and represent the results (mean±SE) of at least three independent experiments.
# Na^125I (specific activity: 2,000 Ci/mmol) was purchased from DuPont/NEN, Boston, Mass. Fetal bovine serum, 3-isobutyl-1-methyl-xanthine (IBMX), and BSA were from Sigma, St. Louis, Mo., and trifluoroacetic acid (TFA) was from Pierce, Rockford, Ill. Radiolabeled rPTH(1-34) and PTHrP(1-36) were prepared by the chloramine-T method, followed by HPLC purification using a 30-50% ACN/0.1% TFA gradient over 30 minutes; radioreceptor assays were performed in 24-well plates as previously described (Gardella, T. J., et al., J. Biol. Chem. 271:19888-19893 (1996); Fukayama, S. et al., Endocrinology 134:1851-1858 (1994)). […] The entire lysate was counted for γ-irradiation. Specific binding was determined after subtracting radioactivity bound in the presence of maximal concentrations of unlabeled competing peptide (10^−6 M). […] Data were analyzed and graphically illustrated using the graph-pad prism software package.
# human PTH2 receptor [4] = target: T2, human PTH2 receptor; test: Ligand-stimulated cAMP accumulation in hPR2-20 LLCPK1 cells; assay type: cell-based
# [5] = target: T3, human PTH/PTHrP receptor (PTH1R) (human, UniProt Q03431 27-593); test: radioreceptor competition on HKrk-B7 cells, 125I-rPTH(1-34) or 125I-PTHrP(1-36)
# T3 construct: whole, on cells; HKrk-B7 cells about 10^6 receptors/cell; SaOS-2 about 30,000 receptors/cell; also called hPTH-1 receptor; PTH-1 receptor
# T3 sequence (looked up): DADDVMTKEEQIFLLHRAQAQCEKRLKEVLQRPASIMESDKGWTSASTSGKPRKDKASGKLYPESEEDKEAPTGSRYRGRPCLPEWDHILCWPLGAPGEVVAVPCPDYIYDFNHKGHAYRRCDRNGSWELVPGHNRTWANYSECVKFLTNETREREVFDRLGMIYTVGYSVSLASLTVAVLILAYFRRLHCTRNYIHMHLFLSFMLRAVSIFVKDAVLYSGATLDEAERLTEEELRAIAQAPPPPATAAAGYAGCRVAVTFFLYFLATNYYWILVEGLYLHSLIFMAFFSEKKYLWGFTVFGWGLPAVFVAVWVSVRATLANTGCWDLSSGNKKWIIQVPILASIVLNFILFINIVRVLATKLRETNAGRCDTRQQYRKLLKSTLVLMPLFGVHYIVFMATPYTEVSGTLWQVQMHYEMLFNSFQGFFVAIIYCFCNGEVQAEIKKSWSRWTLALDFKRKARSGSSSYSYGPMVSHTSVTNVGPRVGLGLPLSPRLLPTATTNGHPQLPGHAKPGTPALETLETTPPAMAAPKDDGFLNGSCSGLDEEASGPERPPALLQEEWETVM
# Protocol: (§1) Na¹²⁵I (specific activity: 2,000 Ci/mmol) was purchased from DuPont/NEN, Boston, Mass. Fetal bovine serum, 3-isobutyl-1-methyl-xanthine (IBMX), and BSA were from Sigma, St. Louis, Mo., and trifluoroacetic acid (TFA) was from Pierce, Rockford, Ill. […] After 4 h at 16° C., buffer was completely removed, the cells were rinsed with cold BB and lysed with 1 M NaOH. The entire lysate was counted for γ-irradiation. Specific binding was determined after subtracting radioactivity bound in the presence of maximal concentrations of unlabeled competing peptide (10⁻⁶ M). Agonist-dependent stimulation of cAMP accumulation by HKrk-B7 and SaOS-2 cells (48-well plates; stimulation at room temperature for 45 minutes) and the subsequent measurement of cAMP by radioimmunoassay was performed as previously described (Gardella, T. J., et al., J. Biol. Chem. 271:19888-19893 (1996); Bergwitz, C., et al., Endocrinology 139:723-732 (1998)). Data were analyzed and graphically illustrated using the graph-pad prism software package.
# [6] = target: T3, human PTH/PTHrP receptor (PTH1R); test: radioreceptor competition on HKrk-B7 cells; either tracer
# Protocol: (§2) Specific binding was determined after subtracting radioactivity bound in the presence of maximal concentrations of unlabeled competing peptide (10⁻⁶ M). Agonist-dependent stimulation of cAMP accumulation by HKrk-B7 and SaOS-2 cells (48-well plates; stimulation at room temperature for 45 minutes) and the subsequent measurement of cAMP by radioimmunoassay was performed as previously described (Gardella, T. J., et al., J. Biol. Chem. 271:19888-19893 (1996); Bergwitz, C., et al., Endocrinology 139:723-732 (1998)). Data were analyzed and graphically illustrated using the graph-pad prism software package.
# [7] = target: T3, human PTH/PTHrP receptor (PTH1R); test: radioreceptor competition on HKrk-B7 cells; tracer 125I-[Tyr36]PTHrP(1-36)amide
# Protocol: as §1
# [8] = target: T3, human PTH/PTHrP receptor (PTH1R); test: radioreceptor competition on HKrk-B7 cells; tracer 125I-rat [Nle8,21,Tyr34]PTH(1-34)amide
# Protocol: as §1
# [9] = target: T3, human PTH/PTHrP receptor (PTH1R); test: radioreceptor competition on HKrk-B7 cells
# Protocol: as §2
# T2 sequence (P49190 25-550): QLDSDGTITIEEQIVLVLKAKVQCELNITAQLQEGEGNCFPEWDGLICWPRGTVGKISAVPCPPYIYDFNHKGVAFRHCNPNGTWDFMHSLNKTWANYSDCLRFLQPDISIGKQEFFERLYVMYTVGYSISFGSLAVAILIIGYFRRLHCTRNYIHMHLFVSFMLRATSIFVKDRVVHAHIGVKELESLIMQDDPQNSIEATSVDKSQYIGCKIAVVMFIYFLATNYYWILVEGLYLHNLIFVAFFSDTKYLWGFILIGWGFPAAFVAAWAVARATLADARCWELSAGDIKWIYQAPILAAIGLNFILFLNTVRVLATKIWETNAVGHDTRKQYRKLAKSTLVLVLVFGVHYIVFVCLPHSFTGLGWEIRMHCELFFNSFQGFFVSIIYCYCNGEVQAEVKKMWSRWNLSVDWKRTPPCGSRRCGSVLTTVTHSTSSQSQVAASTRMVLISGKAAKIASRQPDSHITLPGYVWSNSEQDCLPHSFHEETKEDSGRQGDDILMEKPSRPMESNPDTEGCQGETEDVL
molecule,measurement,setting,value
CSCC[C@H](NC(=O)[C@H](Cc1ccc(O)cc1)NC(=O)[C@H](CO)NC(=O)[C@H](CC(N)=O)NC(=O)[C@H](CC(C)C)NC(=O)[C@H](Cc1c[nH]c2ccccc12)NC(=O)[C@H](Cc1c[nH]cn1)NC(=O)[C@H](CCCNC(=N)N)NC(=O)[C@H](CCCNC(=N)N)NC(=O)[C@H](CCC(=O)O)NC(=O)[C@H](CC(C)C)NC(=O)[C@H](C)NC(=O)[C@H](C)NC(=O)[C@H](CC(C)C)NC(=O)[C@H](CC(C)C)NC(=O)[C@H](CCCNC(=N)N)NC(=O)[C@H](C)NC(=O)[C@H](CCCNC(=N)N)NC(=O)[C@H](CCC(=O)O)NC(=O)[C@H](CCCNC(=N)N)NC(=O)[C@H](Cc1ccccc1)NC(=O)[C@H](C)N)C(=O)N[C@@H](Cc1c[nH]cn1)C(=O)N[C@@H](CCCCN)C(=O)N[C@@H](CC(C)C)C(=O)N[C@@H](CC(C)C)C(=O)N[C@H](C(=O)N[C@@H](CC(C)C)C(=O)N[C@@H](CC(=O)O)C(=O)N[C@@H](C)C(=O)N1CCC[C@H]1C(N)=O)C(C)C [TIP(9-39)] (H-AFRERARLLAALERRHWLNSYMHKLLVLDAP-NH2),stimulation of cAMP accumulation at the PTH1R (in words),PTH1R [1],lack of second messenger formation; also recorded: failed to stimulate cAMP accumulation
same,higher antagonist concentration required against human TIP39 than against PTH-(1-34),human PTH2 receptor [2]; 1 nM of either agonist,approximately 14 fold
same,antagonism at the PTH2 receptor (in words),"human PTH2 receptor [2]; P2R LLCPK1 cells, FIG. 8",antagonist of the PTH2 receptor
same,inhibition of agonist actions (in words),PTH1R [3],inhibited the actions of the three agonists
CSCC[C@H](NC(=O)[C@H](Cc1ccc(O)cc1)NC(=O)[C@H](CO)NC(=O)[C@H](CC(=O)O)NC(=O)[C@H](CC(C)C)NC(=O)[C@H](Cc1c[nH]c2ccccc12)NC(=O)[C@H](CCC(=O)O)NC(=O)[C@H](CCCNC(=N)N)NC(=O)[C@H](CCCNC(=N)N)NC(=O)[C@H](CCC(=O)O)NC(=O)[C@H](CC(C)C)NC(=O)[C@H](C)NC(=O)[C@H](C)NC(=O)[C@H](CC(C)C)NC(=O)[C@H](CC(C)C)NC(=O)[C@H](CCCNC(=N)N)NC(=O)[C@H](C)NC(=O)[C@H](CCCNC(=N)N)NC(=O)[C@H](CCC(=O)O)NC(=O)[C@H](CCCNC(=N)N)NC(=O)[C@H](Cc1ccccc1)NC(=O)[C@H](C)NC(=O)[C@H](C)NC(=O)[C@H](CC(=O)O)NC(=O)[C@H](CC(=O)O)NC(=O)[C@H](C)NC(=O)[C@H](CC(C)C)NC(=O)[C@H](C)NC(=O)[C@H](CC(C)C)NC(=O)[C@@H](N)CO)C(=O)N[C@@H](CCC(N)=O)C(=O)N[C@@H](CCCCN)C(=O)N[C@@H](CC(C)C)C(=O)N[C@@H](CC(C)C)C(=O)N[C@@H](CC(C)C)C(=O)N[C@@H](CC(C)C)C(=O)N[C@@H](CC(=O)O)C(=O)N[C@@H](C)C(=O)N1CCC[C@H]1C(N)=O [mouse TIP39] (H-SLALADDAAFRERARLLAALERREWLDSYMQKLLLLDAP-NH2),maximum cAMP accumulation,human PTH2 receptor [4],133.7±3.9 pmol/well
B1,binding result,[5],no binding
B2,fold improvement in apparent binding affinity relative to TIP(1-39),[6],≤ 6 fold
same,IC50,[7],68 nM
same,IC50,[8],96 nM
same,fold higher apparent binding affinity in comparison to the parent peptide TIP(1-39),[9],~3 fold
B3,binding result,[5],no binding

# — patent publication US20040176285A1, “Tip39 polypeptides” (priority 2001, published 2004)
